# Data: US20160362487A1 (Regeneron, published 2016)
# Residue numbers refer to the chain shown, from its start. In names and notes the source's numbering stands.
# T1: cynomolgus monkey IL-33 expressed with a C-terminal hexahistidine tag (cynomolgus monkey)
# T1 construct: also called MfIL-33-6His; Mf-IL-33-6His
# T1 chain: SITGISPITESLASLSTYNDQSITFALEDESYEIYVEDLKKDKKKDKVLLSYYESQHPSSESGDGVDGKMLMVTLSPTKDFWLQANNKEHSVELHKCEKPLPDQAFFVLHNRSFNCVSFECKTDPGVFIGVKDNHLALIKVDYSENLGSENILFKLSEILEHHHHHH
# T2: human IL-33 (R&D Systems, #3625-IL-010/CF) (human, UniProt O95760 112-270)
# T2 construct: Commercial recombinant protein; also called hIL-33; interleukin-33
# T2 sequence (looked up): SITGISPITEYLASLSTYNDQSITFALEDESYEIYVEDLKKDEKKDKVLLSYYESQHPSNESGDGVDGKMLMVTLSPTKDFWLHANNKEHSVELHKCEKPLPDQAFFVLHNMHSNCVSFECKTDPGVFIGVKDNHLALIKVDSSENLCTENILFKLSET
# B1: H4H9671P (antibody, human IgG4, V domains shown)
# VH: EVQLVESGGGLVQPGGSLRLSCAASGFTLRSYFMTWVRQVPGKGLEGVSAISGISGGTYYTDSVKGRFTISRDNSKNTLFLQMNSLRAEDTAVYFCARTVYSSSYYGGFQHWGQGTLVTVSS
# VL: DIQMTQSPSSVSVSVGDRVTITCRASQGISSWLAWYQQKPGKAPKLLIYVASSLQSGVPSRFSGSGSGTDFTLTISSLQPEDFATYYCQQTNSFPLTFGGGTKVEIK
# notes: Human IgG4 Fc (H4H)
# B2: H4H9676P (antibody, human IgG4, V domains shown)
# VH: EVQLVESGGGLVQPGGSLRLSCSASGFTFSSYAMNWVRQAPGKGLEWVTAISGSGGGTYYADSVKGRFTISRDNSKNSLFLQLNSLRAEDTAVYYCAKQTYTSSWYGGFDIWGQGTMVTVSS
# VL: B1 VL with V13A, I29F, K39I, V50A, S53R, S63R, T91A
# notes: Human IgG4 Fc (H4H)
# B3: H1M9559N (antibody, mouse IgG1, V domains shown)
# VH: QVQLVESGGGVVQPGRSLRLSCAASGFTFSSYGMHWVRQAPGKGLEWVAVIWYDGRNKYYTDSVKGRFTISRDNSKNTLYLQMDSLRAEDTAVYYCARERYISSYYGGFDPWGQGALVTVSS
# VL: B1 VL with V13A, L46V, V50A, T91A, L96F, G100P, V104L, E105D
# notes: Human variable domains, mouse IgG1 Fc (H1M)
# B4: H4H9672P (antibody, human IgG4, V domains shown)
# VH: B1 VH with F33V, T35Y, V40G, A50G, I54S, T99S, S103T, S104T, Y105W
# VL: B1 VL with G28V, Q38L, V50A, S77G, T85V
# notes: Human IgG4 Fc (H4H)
# B5: H4H9675P (antibody, human IgG4, V domains shown)
# VH: EVQLVESGGNLEQPGGSLRLSCTASGFTFSRSAMNWVRRAPGKGLEWVSGISGSGGRTYYADSVKGRFTISRDNSKNTLYLQMNSLSAEDTAAYYCAKDSYTTSWYGGMDVWGHGTTVTVSS
# VL: B1 VL with V13A, S30F, V50A, T85I, T91A, F94V, L96I, G100Q, K103R, V104L
# notes: Human IgG4 Fc (H4H)
# Molecular target: T1, cynomolgus monkey IL-33 expressed with …
# Assay: SPR 37C pH7.4, mAb captured
# Method: (§1) Equilibrium dissociation constants (KD values) for IL-33 binding to purified anti-IL-33 monoclonal antibodies were determined using a real-time surface plasmon resonance biosensor using a Biacore 4000 instrument. The Biacore sensor surface was first derivatized by amine coupling with either a polyclonal rabbit anti-mouse antibody (GE, # BR-1008-38) or with a monoclonal mouse anti-human Fc antibody (GE, # BR-1008-39) to capture anti-IL-33 monoclonal antibodies expressed with mouse or with human IgG4 constant regions, respectively. All Biacore binding studies were performed in 0.01M ADA pH 7.4, 0.15M NaCl, 3 mM EDTA, and 0.05% v/v Surfactant Tween-20 (ABS-ET running buffer). […] Association of either hIL-33 or MfIL-33-6His to the captured monoclonal antibody was monitored for 4 minutes and their dissociation in ABS-ET running buffer was monitored for 10 minutes. The effect of reduced pH on the binding of each anti-IL-33 antibody to either hIL-33 or MfIL-33-6His was studied using an in-line pH chase assay format in 0.01M ADA pH 6.0, 0.15M NaCl, 3 mM EDTA, and 0.05% v/v Surfactant Tween-20 (ABS-ET pH6 buffer). To achieve this, association of either hIL-33 or MfIL-33-6His to the captured monoclonal antibody was monitored for 4 minutes in ABS-ET running buffer. Following a 30 second dissociation of either hIL-33 or MfIL-33-6His in ABS-ET running buffer, ABS-ET pH6 buffer was injected for 3 minutes, and the analyte dissociation under the low-pH conditions was measured. All the binding kinetic experiments were performed at both 25° C. and 37° C. Kinetic association (kₐ) and dissociation (kd) constants were determined by fitting the real-time sensorgrams to a 1:1 binding model using Scrubber 2.0c curve fitting software. Binding dissociation equilibrium constants (KD) and dissociative half-lives (t½) were calculated from the kinetic rate constants as: […]
Kd [nM],koff [s⁻¹],kon [M⁻¹ s⁻¹],t½ [min],Binder
5.08,0.00607,1.2e+06,1.9,B1
7.7,0.0144,1.87e+06,0.8,B2
7.04,0.00347,493000,3.3,B3
13.7,0.013,946000,0.9,B4
4.81,0.00491,1.02e+06,2.4,B5

# Molecular target: T2, human IL-33 (R&D Systems, …)
# Assay: SPR 37C pH7.4, mAb captured
# Method: as §1
Kd [nM],koff [s⁻¹],kon [M⁻¹ s⁻¹],t½ [min],Binder
0.938,0.00114,1.21e+06,10,B1
0.922,0.00128,1.38e+06,9,B2
2.03,0.000962,473000,12,B3
1.05,0.00115,1.09e+06,10,B4
0.411,0.000872,2.12e+06,13,B5

# Molecular target: T1, cynomolgus monkey IL-33 expressed with …
# Assay: SPR 25C pH7.4, mAb captured
# Method: as §1
Kd [nM],koff [s⁻¹],kon [M⁻¹ s⁻¹],t½ [min],Binder
2.55,0.0015,587000,8,B1
4.84,0.00412,852000,2.8,B2
3.82,0.00123,321000,9,B3
8.22,0.0036,437000,3.2,B4
2.55,0.00129,506000,9,B5

# Molecular target: T2, human IL-33 (R&D Systems, …)
# Assay: SPR 25C pH7.4, mAb captured
# Method: as §1
Kd [nM],koff [s⁻¹],kon [M⁻¹ s⁻¹],t½ [min],Binder
0.453,0.000349,771000,33,B1
0.334,0.000345,1.03e+06,33,B2
0.678,0.000274,404000,42,B3
0.527,0.000352,668000,33,B4
0.254,0.000258,1.02e+06,45,B5

# Molecular target: T2, human IL-33 (R&D Systems, …)
# Assay: BLI; hIL-33 pre-mixed with mAb-2 Isotype control 1
# Method: Binding competition between a panel of different anti-IL-33 monoclonal antibodies was determined using a real time, label-free bio-layer interferometry assay on an Octet® HTX biosensor (ForteBio, A Division of Pall Life Sciences). The experiment was performed at 25° C. using a buffer of 0.01M HEPES pH7.4, 0.15M NaCl, 0.05% v/v Surfactant Tween-20, and 0.1 mg/ml BSA (HBS-ET kinetics buffer) with the plate shaking at a speed of 1000 rpm. To assess whether two antibodies were able to compete with one another for binding to human IL-33, a pre-mix assay format was used where 100 nM of human IL-33 (R&D Systems; #3625-IL-010/CF) was pre-mixed with 500 nM of different anti-IL-33 monoclonal antibodies (subsequently referred to as mAb-2) for at least 2 hours prior to running the binding competition assay. […] Following the capture step, unoccupied anti-mouse Fc polyclonal antibody and anti-human Fc polyclonal antibody on the Octet biosensors were saturated by submerging them for 4 minutes into wells containing 200 μg/mL of a non-specific monoclonal antibody with a mouse Fc or with a human Fc, respectively. Finally, the Octet biosensors were immersed for 4 minutes into wells containing the pre-mixed samples of 100 nM of human IL-33 and 500 nM of mAb-2. At the end of each cycle, the non-covalently captured anti-IL-33 antibodies along with the bound pre-complex of human IL-33 and mAb-2 were removed from the biosensors using three alternate 20 second immersions into 10 mM HCl followed by submerging into HBS-ET kinetics buffer. The biosensors were washed in HBS-ET kinetics buffer in between every step of the experiment. The real-time binding response was monitored during the binding events, and the binding response (in units of nm) at the end of every step was recorded.
row,mAb-1 Binding to the Pre-complex of mAb-2 & hIL-33 [nm],Binder
1,0.13,B1
2,0.11,B2
3,0.06,B3
4,0.16,B4
5,0.13,B5
